This data set has as its system ATP. The experiment in a line: switch fluorescence ratio, 500 uM ATP over buffer (Cy3 cluster intensity, sum of 5 cycles each) (fold (ratio)); higher = stronger signal-on switching upon ATP binding; sequences stand for … in TCGTCGGCAGCGTCAGATGTGTATAAGAGACAGTTTTTTTTTTTTTTTTTTTTTTTTT…TC. The following applies: aptamer strand: ATP DNA aptamer (quencher-CACCTGGGGGAGTATTGCGGAGGAAGG + anchor), 100 nM annealed; ATP concentration: 500 uM. In a few lines:
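Five buffer/ATP imaging cycles were run on Cy3-labelled switching-strand clusters on a modified Illumina MiSeq flow-cell, with NaOH stripping and re-annealing between cycles. In each cycle, clusters annealed to 100 nM quencher-labelled ATP aptamer were imaged in selection buffer, then after 15 min with 500 uM ATP at 22 °C. Per cluster, the fluorescence ratio is summed target-cycle over summed buffer-cycle Cy3 intensity, averaged per switch-domain sequence. Only clusters within 100-1000 RFU were kept.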

In the supplement of paper PMC10126150 one finds switch fluorescence ratio data, which are given here for 67 sequences.

± gives the standard deviation of the averaged measurements.
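Further: ATP exposure 15 min at 22 °C before imaging.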

In the case of CCTGGATTTA, the switch fluorescence ratio turned out to be 1.01 ± 0.011.
To CGTGTTGAGG belongs 0.991 ± 0.023.
Next, AATATGAG: 1.02 ± 0.018; GCTCTGAGTG: 1.013 ± 0.0075; CTGGTTAAGG: 0.957 ± 0.017.
Turning to ATGCGAAGTG, the switch fluorescence ratio came to 1 ± 0.039.
On to TTTGTTGCCA, for which the switch fluorescence ratio was found to be 0.988 ± 0.0019.
As for TGCGGTGACC, the switch fluorescence ratio was found to be 1 ± 0.014.
Turning to AATGCTCTTC, the switch fluorescence ratio came out at 0.973 ± 0.04.
To TGGTAGACGT belongs 0.968 ± 0.016; to GACATTCCCT, 1.07 ± 0.016.
To CGGTTCGCGT belongs 0.972 ± 0.031.
As to TTACTCTTCG, the switch fluorescence ratio is 1.062 ± 0.0074.
As to TATTCGCCTT, the switch fluorescence ratio stood at 1.11 ± 0.12.
Take TTTATACAA: the switch fluorescence ratio was 1.018 ± 0.0097.
Consider GCGGGAGAGG, for which the switch fluorescence ratio was 1.02 ± 0.033.
Next, TTTCGTTTGG: 0.981 ± 0.042; GTTTACGCAC: 1.75 ± 0.03.
As to TATGAATAGC, the switch fluorescence ratio was found to be 1.02 ± 0.05.
Next, GGTTGGTGCA: 1.02 ± 0.013; AGTTGTCTCG: 1.01 ± 0.058; TGGGCGCGGT: 0.975 ± 0.018.
TATTGGGAGG: the switch fluorescence ratio came out at 0.968 ± 0.023.
Next, ACGTTGCGAG: 0.994 ± 0.015; TAAAGTGGT: 0.986 ± 0.043; GATGAGTTGT: 0.961 ± 0.021.
Next, TAATGCGATG: 0.9852 ± 0.005.
Take ACCAGGTGTG: the switch fluorescence ratio was found to be 3.53 ± 0.34.
On to GCCGTCTCCC, for which the switch fluorescence ratio came out at 1.03 ± 0.047.
As to CCGTGGCTGT, the switch fluorescence ratio came out at 1.31 ± 0.068.
In the case of TGAGTGTGTA, the switch fluorescence ratio came to 1.03 ± 0.042.
Next, AGGAGTGGCG: 0.97841 ± 0.00086.
Next, TTTGGAGAAT: 1.02 ± 0.025; CGGAGGTGTA: 1.4 ± 0.67; GGAGGGGTTT: 1.01 ± 0.04.
On to CCAGACAGGG, for which the switch fluorescence ratio was determined as 0.956 ± 0.045.
To AGCTATGGGA belongs 1.04 ± 0.015; to TTTTGGCTCC, 0.99685 ± 0.00035.
To GAGGCTTGGG belongs 0.99 ± 0.011.
Consider AGGGGTTTTG, for which the switch fluorescence ratio worked out at 0.989 ± 0.022.
As for GAGGGTCTTT, the switch fluorescence ratio stood at 0.969 ± 0.025.
On to ATTTGGGGAC, for which the switch fluorescence ratio is 0.98 ± 0.016.
Next, GATGTGCACC: 0.983 ± 0.027; TATAATCTGT: 1.01 ± 0.017; AGGGGCGTAA: 1 ± 0.05.
To TAATTCGACT belongs 1.02 ± 0.029; to GTTTGTCAGG, 0.99 ± 0.04.
Next, TTGAAAAAAA: 1.2 ± 0.27.
For GTTGGCGTGA, the switch fluorescence ratio came to 1.01 ± 0.057.
Next, TTCAAAGGTG: 1.41 ± 0.16; GGGCGGAGCG: 0.999 ± 0.036; TTCTGGGGCA: 1.05 ± 0.055.
Take AACGCTTCAC: the switch fluorescence ratio stood at 1.65 ± 0.054.
To TTAAAAGGG belongs 0.9979 ± 0.007; to TGATGGCGGT, 1.04 ± 0.065; to ATGTATTTTC, 0.986 ± 0.041.
As for TTACACATCA, the switch fluorescence ratio turned out to be 1.083 ± 0.0047.
Next, TAGAGATCTG: 0.996 ± 0.014; AGGATACTTT: 0.9793 ± 0.0038.
To GCTAGTGGTG belongs 1.04 ± 0.018; to ACGTTTTGTG, 0.96 ± 0.028.
Next, TTTTGGGTG: 1.04 ± 0.04.
As to TTAATCCTTG, the switch fluorescence ratio was found to be 1.02 ± 0.034.
Next, TTTTTGGCTT: 1.02 ± 0.093.
Next, TGCGCCCGTT: 1 ± 0.033; ACTGGGGTCT: 1.01 ± 0.026.
In the case of CGTTTTTATG, the switch fluorescence ratio was 1.03 ± 0.04.
